{"source": "the DeepSol protein solubility set", "data": [{"test": "soluble on expression in E. coli; label from the status in PepcDB or PDB records", "values": [{"sequence": "MSLKYSSTTADYLVWSDAMNLIRKLAKDENYKISLLIALGCFTGLRISDILSLRWKQILDADEFTVIEKKTDKVRTIRLNPQLQHHIKECYEHINPVGINAPILISQKGTIFTVQRINIILKEVKKKYRLKIKNFSCHSLRKTFGRQVYNMNSDNAELALVKLMELFNHSSVAITKRYLGLRQEEILQTYDCLSF", "soluble on expression in E. coli": "not soluble"}, {"sequence": "MGSDKIHHHHHHMNDINLLPLTSAYLDLILEWRNNPEVRRNMYTSHVISKAEHYAWFKKLESDNTKQCFIFVLNGVPSGFISFVDINLNSKSATWAFYSGNTSVRGIGSLMEVSALNYAFSTLGLHKLSCEVLEFNNMVVRFHEKYGFHVEGVFKKHHFSEGEYWDIYRLAIFNEEWARCKLEINLKKQSISPGSSYRENVFFTNENIIGFSALSGDCNQIHLNKQYAIKNGFDNNLVHGFLVGSVFSKVFGTRFPGDGCIYISQSLSFLSPVYPDDLLEASFVVLSKIGRKLVVETSITNLHSNKKVIDGVAELLISMDSQIGYLNQYL", "soluble on expression in E. coli": "not soluble"}, {"sequence": "WGYECIGMFRSYQEINEYFDKYSITKYLGNTKENVHPGMLIYKDVRGQYDESTGTFGPADGIVDEQDYIKISHRASNPYGGTLNFGFSYKDFSISAQFGASWGAYSLVPTTMRKESYSEYSNVSAMWKDMFVYEDIYDANNIVTVAQNRNAKYPNIRYSSVNGAPSTFWKVSAATVQLRNMTVAYALPKEWLKIIGISSCRFNLTCQNVFNFLNPYPEGAWASWAGSYGYYPNLRKFTLGVNVSF", "soluble on expression in E. coli": "not soluble"}, {"sequence": "MTTILAFDIETVPDVQGIRTLYELPSSLPDDEVVLFAQQKRRAQTGGDFMQHHLHQVVAISCCMRWGQDKVHVGTIGEMDDGEEVVIAKFFELIEKHTPQLVSWNGGGFDLPVLHYRSLIYGINAARYWDMGDGDFGDSRDFKWNNYISRYHQRHCDLMDLLALYQPRANVPLDDMAKLCGFPGKLGMDGSKVWEAFHTGRLKEIRNYCETDAANTYLMYLRFCLVSGRLDADEYEMEIKRMRNYLSAQAGEKPHWEEFVRAWE", "soluble on expression in E. coli": "not soluble"}, {"sequence": "MQIEKMKLSDLKAADYNPRVDLKPGMQEYEKLKQSILEFGFVDPPIYNIQTGNLVGGHQRVAVAKELGLFNEIEVSVVDLPLDKEKALNVALNKISGRWDEEKLSILLNELDDEAVNLTGFDTEEVDSLLASFNYEEDIEKPIIEDDFQVNEFIENHHEAKTKLGQLWKLGNHYLLCGDATKLSDVEKLLQGKKANLVVTDPPYNVAVKSDNKELNESGREKIMNDDMSDEEFDQFLMSVFQNYSNAMRDDSAIYVFHGSSYQREFENSMNAAGIVVRSQCIWVKNNATFGWSQYRWQHEPVFYAHKKKQAPSWYGDRKQTTIWQDDLLEDLPATIWKVPRDDVATYYHPTQKPLSLIAIPVRNSSKRQDIVLDLFGGSGSTLMTCEQLNRICYTLELDPLFCDVIIERFEKSTGIIAELVE", "soluble on expression in E. coli": "not soluble"}, {"sequence": "MAGDPMLKQLKKVIITTAIALATLCSTQAFAETNPYLLMQKTADKLFTNIKNNQTKIKANPEYLRDIVREDLMSYVHIRYAGQLVLGKSLSSVSEPQREKFFNAFGKFIEQAYAQILTQYEDQQIQIENEKPLGDKSIVSIRVNVLSSGSTPPIKLDFKWRKNSKTGEWQAYDMAAEGVSMVATKQNEWSNILRQQGIDALTNQVEKAAKQPITLNKLEHHHHHH", "soluble on expression in E. coli": "soluble"}, {"sequence": "MNVVKFGGSSLASAPQLQKVLQIVKEEPRRTFVVVSAPGKRTPQDIKVTDLLIQYYQRYLNNEEIESTISAIIRRYEDLFDELHLDKAVLADIAISIRQLATLPKENNAFLFDYFLASGEDNNAKVVASFFKQNGLDARYISPKELGLLVTPEPGNARILPKALEKISVYRETQQILVIPGFFGYTEAGEICTFSRGGSDITGSIVAAGVQADLYENFTDVDGIYVAHPGIIEQPQTIQELTYREMRELAYAGFAVLHDEALMPAYRANIPVVIKNTNNPHHPGTLITTSRKVKHAPVVGIASDQGFASIYISKYLMNRELGFGRRLLEVLEKLALSYEHMPSGIDDITIVLREDQLTTEIENRLMAQLQEVLAPDELRITHHLSMIMIVGEGMRQRIGVTAESTMALAKEKINLEMINQGSSEVSIMFGIKKEQEEKAIKALYRTFFHD", "soluble on expression in E. coli": "not soluble"}, {"sequence": "GPLGSEEEQFALALKMSEQEAREVNNQEEKEEELLRKAIAESLNS", "soluble on expression in E. coli": "soluble"}, {"sequence": "MANSAGSMIKEFCAENFTKIPQAIQKGANRIELCDNLAVGGTTPSTGVIEEVLAYAGEHSVPVMTIIRPRGGNFVYNDIELKIMHTDLIEAKKLGTDGIVIGCLTEDGWLDEEALDLFIETAEGLQITFHMAFDALSKENQFKAIDWLAERGVTRILTHGGPAGTPIEDNFDHLKELIVYADQRILILPGGGISTENVQTVMDTLKVTEVHGTKIVLEHHHHHH", "soluble on expression in E. coli": "not soluble"}, {"sequence": "MASGDVRIASLVPSITELLFDLGLADQLVARTGFCIHPEPAVRAVAKVGGTKDVKLDRLRALAPTHVVVNIDENRRETVDEIRTFVPHVIVTHPCAPEDNLALYRLLGGIFGRRPQAEALVGQLRGELDAIQAQTWPLEHHHHHH", "soluble on expression in E. coli": "not soluble"}, {"sequence": "SLVQHFDTLLVNIGQLLPMESKGPKRGKEMSELQLLEHAALGIRDGKVAFIGTMVEADTFTANQMIDCQGKLVTPGLVDPHTHLIFGGSREHEMALKQQGVPYLEILKNGGGILATVEATRAASEEELITKAICHLNRMLSYGVTTIEAKSGYGLDRETEWKQLRAAKAVGEQHPIDIVSTFLGAHAIPTSHRNDPDRFLDEMADMLGEIKEQNLAEFVDIFTETGVFTVEQSRTFLQKAKERGFGLKLHADEIDPLGGAELAGELGAISADHLVGASDQGIQKMAAAGTIACLLPGTTFYLGKDTYARARDMIDQGLAVTISTDFNPGSSPTENLQLIMSIAALRLKMTPEEIWHAVTVNGAHAIGRGDTAGQLAVGRAADVVVWDAKNYYYVPYHYGVNHVHSVWKKGEVVYERRRAFEGLSISR", "soluble on expression in E. coli": "soluble"}, {"sequence": "MSSALTDLFPLPIVQAPMAGGVSVPQLAAAVCEAGGLGFLAAGYKTADGMYQEIKRLRGLTGRPFGVNVFMPQPELAESGAVEVYAHQLAGEAAWYETELGDPDGGRDDGYDAKLAVLLDDPVPVVSFHFGVPDREVIARLRRAGTLTLVTATTPEEARAVEAAGADAVIAQGVEAGGHQGTHRDSSEDDGAGIGLLSLLAQVREAVDIPVVAAGGIMRGGQIAAVLAAGADAAQLGTAFLATDESGAPGPHKRALTDPLFARTRLTRAFTGRPARSLVNRFLREHGPYAPAAYPDVHHLTSPLRKAAAKAGDAQGMALWAGQGHRMARELPAGRLVEVLAAELAEARTALSDASRENESRKGHHHHHH", "soluble on expression in E. coli": "soluble"}, {"sequence": "MNIREIAAKCSKCGYCTTCPTYRIEGWETVSPRGKIQLALKYVDGEIDVDQKIVKDIFKCSVCGLCQEVCPVELPLIDFWEELRRTLVQKGLAPLSVHRKLREILEHHHHHH", "soluble on expression in E. coli": "not soluble"}, {"sequence": "MGSDKIHHHHHHMFPDGEISDVVVIGGGPAGAICALALARAGVDVKLMYWGGYAPGGIELVSGRGRHFIEQYCPDFFSEVVHGIEIHETASLWDTAEPVIFNAMFNPWGAGVAIERSLLDGALRNLASGAGGTIIPDAKVVDVERQHDRWRLIARSSEDASSNETTSRAGEFAIYARFIVLATGRVPLPFFDHAPVAESSQIALMTSLQARIAPRHTLYVEGTRNGWWYALPAEKGYFASFCIGRNELKQRQSRLKDFFFQELQCTRLLAPLSAGAFDQRPIAGRMAGATMFPAMGGDAWIAVGDATAAPDPLSGTGIEWAIESAQLGADMLLEALHGSKGNVLFDLPRYENTIRRRIAAQEKTAAYHYHRLKEIRET", "soluble on expression in E. coli": "not soluble"}, {"sequence": "MNNSEGLKSFQQSLADLPQWVSERLLQQINQLTNYEPVIGIMGKTGVGKSSLCNALFAGDISPVSDVAACTREPLRFRLQVGDRYITLMDLPGVGESGARDTEYAALYREQLPRLDLVLWLIKADDRALTVDEHFYHQVIGEVYRHKVLFVISQSDKAEPTSGGGQLSTAQKQNISRKICLLHELFQPVHPVCAVSVRLQWGLKVMAERMIKCLPREATSPVVSQLHPSFRTTVVREQARSDFGETVGAVLDSISAFPLIPAPVRAVIQAVRTTVVSVARAVWDFFF", "soluble on expression in E. coli": "soluble"}, {"sequence": "MGSDKIHHHHHHMSTDCLQELENALGRAALVRDEDRALYDVDWRGHLHGRSLAVVCPSRVEDVGETIRIARRHQISIVPQGGNTGLAGGATPDSTGRQLVLCTRRLNRIRGVDLLGNFITVDAGCILQNVQDAAQSHDRLFPLSLAAQGSCTIGGNLATNAGGNAVLRYGNMRELCVGIEAVDAQGRLIGDLKCVRKNNTGYSLRDLLIGSEGTLGIITGAALRLFPRPFAYATALVKCADIDHALQVLGILRAHCADFLSGVEWMSNGSLSNVSKQFLDTRIPPGFDESCLCLVELSGSTPPGLLDDILASALDQAITSGFAADAALASNLAERDAFWALRERLPLAEARCRSLKHDVSLPAGNMSEFVAHLEGYLSSMTLRCAWAGFGHLGDGNLHANVLIPDTMPDALCDCIDEFVYSEVLRLEGSISAEHGIGSRKNDLLHRALDVASLQAMQAVRNALDPHNLFNPGKLLFN", "soluble on expression in E. coli": "not soluble"}, {"sequence": "MSSTALLPPNTDQVLSRRLHGKAAEKKTGLAAIASKDVDEQSRKLQEYFEFWDRNHENESEEDRARRIDGYKSVVNSYYDLATDLYEYGWSQSFHFSRFYKGEAFAQSIARHEHYLAYRMGIKPGSRVLDVGCGVGGPAREITEFTGCNLVGLNNNDYQISRCNNYAVKRNLDKKQVFVKGDFMHMPFEDNTFDYVYAIEATVHAPSLEGVYGEIFRVLKPGGVFGVYEWVMSDDYDSSIPKHREIAYNIEVGDGIPQMVRKCDAVEAIKKVGFNLLEEDDLTDHDNPDLPWYYPLTGDITKCQNIWDVFTVFRTSRLGKLVTRYSVQFLEKIGVAAKGTSKVGDTLAIAQKGLIEGGETHLFTPMFLMIAKKPETDA", "soluble on expression in E. coli": "soluble"}, {"sequence": "MGSDKIHHHHHHMRMLRRGSRGNDVAEVQVRLSELGYIPGPIDGIFGPKTEAAVIRFQKDRGLNPDGIVGPLTYQALFQPGPQPGYVLYTIKAGDTFYKLSLAFGVSLNEIIAANPGVDPYQLRIGQQVRIPKGGPGRRHTFSAWIPYWVQQEAMAVVRQHAELMTTLSPFWYELTPTGDLLLYPNAEDSSLIEFARSRGIELIPLVANNYDRQLISTVLNNPDLRQRNIAQIVNKVRSMNYTGIEIDYENIAAADRELFVLFLRELKAALAPYNKKLYVAIQAKTRADEPVSIGHDYGGIGAAVDVVRLMLYDYSWDNPGPIAPASWIRQVLDYAVTVIPPAKLEAGLPTYGYDWGTTRRSITYDDAIRLAQQHGAQIIQDPQRGPHFNYTDADGIAHQVWFTNALNFATFVDIVNQYNLRGISIWHPGGDDPQIYTVIQDRLE", "soluble on expression in E. coli": "not soluble"}, {"sequence": "AGTHDYSTALKDSIIFFDANKCGPQAGENNVFDWRGACHTTDGSDVGVDLTGGYHDAGDHVKFGLPQGYSAAILGWSLYEFKESFDATGNTTKMLQQLKYFTDYFLKSHPNSTTFYYQVGEGNADHTYWGAPEEQTGQRPSLYKADPSSPASDILSETSAALTLMYLNYKNIDSAYATKCLNAAKELYAMGKANQGVGNGQSFYQATSFGDDLAWAATWLYTATNDSTYITDAEQFITLGNTMNENKMQDKWTMCWDDMYVPAALRLAQITGKQIYKDAIEFNFNYWKTQVTTTPGGLKWLSNWGVLRYAAAESMVMLVYCKQNPDQSLLDLAKKQVDYILGDNPANMSYIIGYGSNWCIHPHHRAANGYTYANGDNAKPAKHLLTGALVGGPDQNDKFLDDANQYQYTEVALDYNAGLVGVLAGAIKFFGGTIVNPPVKK", "soluble on expression in E. coli": "soluble"}, {"sequence": "MGSDKIHHHHHHMRAKELQDWFPEARISDQPVEKEGYLTLPLASQQWILLEEAGLSEREKQLVALLTQQEQARSLNPWYSYLVEGKGQAPQVFKKIQLVYCHLSYFQQENLASWLDMMRTLFPNCQTVLQVGAQDYVFVLQQDKYTSVRDILSDTIEAVEYDFGLRLSIMLGQVWSQTGHQALSDLIKAERDLFKTWWRQGHQGVHTFSQLYLWSMGERLVDLKPIKECLHQMILDQDQIQEIILSLWENSAVLTKTAQQLYLHRNSLQYKIDKWEELTGLQLKELTDLTLCYQLILGSLSTIVGL", "soluble on expression in E. coli": "not soluble"}]}]}
